The labels stand for the following.
B1: RIPK4 (parent)
chain: VSVNAQTLDGRTPLHLAAQRGHYR
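Note: lentivirally expressed fusions sorted by FACS into six bins by GFP to DsRed ratio, PSI derived from sequencing read proportions per bin multiplied by bin number.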

In this data set the parent is B1. The data set can be described thus: protein stability index of a GFP-peptide fusion (GPS, HEK-293T) (PSI 1-6); higher = more stable. To be noted: c terminus: a fixed tail appended.
Consider VSVNAQTLDYRTPLHLAAQRGHYR [G10Y], for which the protein stability index came to 2.66.
VSVNAQTLDRRTPLHLAAQRGHYR [G10R]: the protein stability index was 3.55.
On to VSVNAQTLDWRTPLHLAAQRGHYR [G10W], for which the protein stability index is 2.48.
Turning to VSVNAQTLDPRTPLHLAAQRGHYR [G10P], the protein stability index is 3.66.
As for VSVNAQTLDSRTPLHLAAQRGHYR [G10S], the protein stability index turned out to be 3.57.
For the variant VSVNAQTLDIRTPLHLAAQRGHYR [G10I], the protein stability index stood at 3.38.
With VSVNAQTLDNRTPLHLAAQRGHYR [G10N] the figure was 3.29; with VSVNAQTLDERTPLHLAAQRGHYR [G10E], 3.59.
With VSVNAQTLDLRTPLHLAAQRGHYR [G10L], the protein stability index is 2.81.
Under VSVNAQTLDDRTPLHLAAQRGHYR [G10D] stands 3.69; under VSVNAQTLDTRTPLHLAAQRGHYR [G10T], 3.21; under VSVNAQTLDVRTPLHLAAQRGHYR [G10V], 3.32.
VSVNAQTLDFRTPLHLAAQRGHYR [G10F]: the protein stability index was found to be 2.4.
Take VSVNAQTLDCRTPLHLAAQRGHYR [G10C]: the protein stability index amounted to 3.05.
For VSVNAQTLDARTPLHLAAQRGHYR [G10A], the protein stability index was 3.2.
Consider VSVNAQTLDQRTPLHLAAQRGHYR [G10Q], for which the protein stability index worked out at 3.6.
As for VSVNAQTLDHRTPLHLAAQRGHYR [G10H], the protein stability index was 3.
On to VSVNAQTLDMRTPLHLAAQRGHYR [G10M], for which the protein stability index is 3.12.
In the case of VSVNAQTLDKRTPLHLAAQRGHYR [G10K], the protein stability index was 3.09.
With VSVNAQTYDGRTPLHLAAQRGHYR [L8Y] the figure was 3.07.
As for VSVNAQTHDGRTPLHLAAQRGHYR [L8H], the protein stability index turned out to be 3.73.
Turning to VSVNAQTIDGRTPLHLAAQRGHYR [L8I], the protein stability index came to 3.58.
Under VSVNAQTKDGRTPLHLAAQRGHYR [L8K] stands 3.58; under VSVNAQTADGRTPLHLAAQRGHYR [L8A], 3.92.
Turning to VSVNAQTMDGRTPLHLAAQRGHYR [L8M], the protein stability index stood at 3.75.
In the case of VSVNAQTFDGRTPLHLAAQRGHYR [L8F], the protein stability index worked out at 3.29.
With VSVNAQTWDGRTPLHLAAQRGHYR [L8W], the protein stability index is 3.11.
For the variant VSVNAQTGDGRTPLHLAAQRGHYR [L8G], the protein stability index was determined as 4.26.
Under VSVNAQTDDGRTPLHLAAQRGHYR [L8D] stands 3.74; under VSVNAQTSDGRTPLHLAAQRGHYR [L8S], 3.5.
With VSVNAQTPDGRTPLHLAAQRGHYR [L8P], the protein stability index was found to be 3.95.
With VSVNAQTEDGRTPLHLAAQRGHYR [L8E] the figure was 4.33.
Turning to VSVNAQTCDGRTPLHLAAQRGHYR [L8C], the protein stability index was 3.33.
As for VSVNAQTQDGRTPLHLAAQRGHYR [L8Q], the protein stability index came out at 4.05.
As for VSVNAQTNDGRTPLHLAAQRGHYR [L8N], the protein stability index stood at 3.94.
Under VSVNAQTRDGRTPLHLAAQRGHYR [L8R] stands 3.37; under VSVNAQTTDGRTPLHLAAQRGHYR [L8T], 3.77; under VSVNAQTVDGRTPLHLAAQRGHYR [L8V], 3.92.
For VHVNAQTLDGRTPLHLAAQRGHYR [S2H], the protein stability index was 2.42.
With VLVNAQTLDGRTPLHLAAQRGHYR [S2L] the figure was 2.86; with VQVNAQTLDGRTPLHLAAQRGHYR [S2Q], 3.22.
Consider VRVNAQTLDGRTPLHLAAQRGHYR [S2R], for which the protein stability index was found to be 3.33.
Regarding VKVNAQTLDGRTPLHLAAQRGHYR [S2K], the protein stability index was 3.41.
With VPVNAQTLDGRTPLHLAAQRGHYR [S2P] the figure was 3.75; with VTVNAQTLDGRTPLHLAAQRGHYR [S2T], 2.91.
Consider VMVNAQTLDGRTPLHLAAQRGHYR [S2M], for which the protein stability index was determined as 2.89.
For the variant VWVNAQTLDGRTPLHLAAQRGHYR [S2W], the protein stability index came to 2.3.
For the variant VGVNAQTLDGRTPLHLAAQRGHYR [S2G], the protein stability index was 3.97.
VYVNAQTLDGRTPLHLAAQRGHYR [S2Y]: the protein stability index was 2.82.
For the variant VVVNAQTLDGRTPLHLAAQRGHYR [S2V], the protein stability index came out at 2.22.
As to VNVNAQTLDGRTPLHLAAQRGHYR [S2N], the protein stability index is 3.73.
Under VIVNAQTLDGRTPLHLAAQRGHYR [S2I] stands 2.18.
Under VSVSAQTLDGRTPLHLAAQRGHYR [N4S] stands 2.86; under VSVIAQTLDGRTPLHLAAQRGHYR [N4I], 2.44.
Take VSVTAQTLDGRTPLHLAAQRGHYR [N4T]: the protein stability index came to 3.04.
As for VSVMAQTLDGRTPLHLAAQRGHYR [N4M], the protein stability index is 2.66.
In the case of VSVCAQTLDGRTPLHLAAQRGHYR [N4C], the protein stability index came out at 3.18.
On to VSVAAQTLDGRTPLHLAAQRGHYR [N4A], for which the protein stability index turned out to be 3.17.
Regarding VSVPAQTLDGRTPLHLAAQRGHYR [N4P], the protein stability index worked out at 3.42.
As for VSVVAQTLDGRTPLHLAAQRGHYR [N4V], the protein stability index turned out to be 2.53.
Take VSVLAQTLDGRTPLHLAAQRGHYR [N4L]: the protein stability index came out at 2.69.
In the case of VSVHAQTLDGRTPLHLAAQRGHYR [N4H], the protein stability index worked out at 3.46.
VSVFAQTLDGRTPLHLAAQRGHYR [N4F]: the protein stability index came to 2.06.
Turning to VSVQAQTLDGRTPLHLAAQRGHYR [N4Q], the protein stability index is 3.41.
With VSVKAQTLDGRTPLHLAAQRGHYR [N4K] the figure was 3.51; with VSVGAQTLDGRTPLHLAAQRGHYR [N4G], 3.3.
For the variant VSVRAQTLDGRTPLHLAAQRGHYR [N4R], the protein stability index amounted to 3.21.
With VSVWAQTLDGRTPLHLAAQRGHYR [N4W], the protein stability index came out at 2.06.
Take VSVYAQTLDGRTPLHLAAQRGHYR [N4Y]: the protein stability index turned out to be 3.12.
Consider VSVDAQTLDGRTPLHLAAQRGHYR [N4D], for which the protein stability index worked out at 3.86.
Under VSVEAQTLDGRTPLHLAAQRGHYR [N4E] stands 3.17.
Take VSVNAQTLTGRTPLHLAAQRGHYR [D9T]: the protein stability index came out at 3.22.
Regarding VSVNAQTLPGRTPLHLAAQRGHYR [D9P], the protein stability index was found to be 3.49.
For the variant VSVNAQTLGGRTPLHLAAQRGHYR [D9G], the protein stability index is 3.02.
Regarding VSVNAQTLIGRTPLHLAAQRGHYR [D9I], the protein stability index came out at 2.33.
VSVNAQTLSGRTPLHLAAQRGHYR [D9S]: the protein stability index is 3.04.
VSVNAQTLYGRTPLHLAAQRGHYR [D9Y]: the protein stability index was found to be 2.48.
As to VSVNAQTLEGRTPLHLAAQRGHYR [D9E], the protein stability index worked out at 3.78.
As for VSVNAQTLRGRTPLHLAAQRGHYR [D9R], the protein stability index amounted to 3.31.
In the case of VSVNAQTLWGRTPLHLAAQRGHYR [D9W], the protein stability index was determined as 2.35.
Turning to VSVNAQTLNGRTPLHLAAQRGHYR [D9N], the protein stability index worked out at 3.33.
As to VSVNAQTLAGRTPLHLAAQRGHYR [D9A], the protein stability index was 3.09.
For the variant VSVNAQTLLGRTPLHLAAQRGHYR [D9L], the protein stability index was 2.81.
In the case of VSVNAQTLHGRTPLHLAAQRGHYR [D9H], the protein stability index was determined as 3.15.
On to VSVNAQTLQGRTPLHLAAQRGHYR [D9Q], for which the protein stability index was found to be 2.92.
Turning to VSVNAQTLVGRTPLHLAAQRGHYR [D9V], the protein stability index came to 2.9.
For the variant VSVNAQTLCGRTPLHLAAQRGHYR [D9C], the protein stability index is 3.14.
Take VSVNAQTLMGRTPLHLAAQRGHYR [D9M]: the protein stability index came to 2.62.
Take VSVNAQTLFGRTPLHLAAQRGHYR [D9F]: the protein stability index was 2.25.
VSVNAQTLKGRTPLHLAAQRGHYR [D9K]: the protein stability index was 2.79.
For the variant VSVNGQTLDGRTPLHLAAQRGHYR [A5G], the protein stability index was found to be 3.02.
For the variant VSVNLQTLDGRTPLHLAAQRGHYR [A5L], the protein stability index stood at 2.76.
Regarding VSVNIQTLDGRTPLHLAAQRGHYR [A5I], the protein stability index turned out to be 2.19.
Consider VSVNWQTLDGRTPLHLAAQRGHYR [A5W], for which the protein stability index turned out to be 2.83.

The values are drawn from the supplement of paper PMC10567573.
